B2: importin β from S. cerevisiae (ScKap95) (natural protein)
chain: MSTAEFAQLLENSILSPDQNIRLTSETQLKKLSNDNFLQFAGLSSQVLIDENTKLEGRILAALTLKNELVSKDSVKTQQFAQRWITQVSPEAKNQIKTNALTALVSIEPRIANAAAQLIAAIADIELPHGAWPELMKIMVDNTGAEQPENVKRASLLALGYMCESADPQSQALVSSSNNILIAIVQGAQSTETSKAVRLAALNALADSLIFIKNNMEREGERNYLMQVVCEATQAEDIEVQAAAFGCLCKIMSLYYTFMKPYMEQALYALTIATMKSPNDKVASMTVEFWSTICEEEIDIAYELAQFPQSPLQSYNFALSSIKDVVPNLLNLLTRQNEDPEDDDWNVSMSAGACLQLFAQNCGNHILEPVLEFVEQNITADNWRNREAAVMAFGSIMDGPDKVQRTYYVHQALPSILNLMNDQSLQVKETTAWCIGRIADSVAESIDPQQHLPGVVQACLIGLQDHPKVATNCSWTIINLVEQLAEATPSPIYNFYPALVDGLIGAANRIDNEFNARASAFSALTTMVEYATDTVAETSASISTFVMDKLGQTMSVDENQLTLEDAQSLQELQSNILTVLAAVIRKSPSSVEPVADMLMGLFFRLLEKKDSAFIEDDVFYAISALAASLGKGFEKYLETFSPYLLKALNQVDSPVSITAVGFIADISNSLEEDFRRYSDAMMNVLAQMISNPNARRELKPAVLSVFGDIASNIGADFIPYLNDIMALCVAAQNTKPENGTLEALDYQIKVLEAVLDAYVGIVAGLHDKPEALFPYVGTIFQFIAQVAEDPQLYSEDATSRAAVGLIGDIAAMFPDGSIKQFYGQDWVIDYIKRTRSGQLFSQATKDTARWAREQQKRQLSL
notes: Kap95 (importin β) of S. cerevisiae, PCR-amplified ORF

Assay [1] concerns the target B2. The experiment in a line: pull-down; GST-FG fusions pre-bound to GSH beads; soluble protein (100-500 pmol) pre-mixed with 200 μg bacterial extract proteins in 0.5 ml pulldown buffer (10 mM HEPES pH 7.5, 160 mM KOAc, 1 mM MgOAc2, 1 mM DTT, 0.01% Triton X-100); 20 min, room temperature; eluted with 1 M NaCl, then SDS-sample buffer; SDS-PAGE, SYPRO Ruby. The conditions noted are these: both partners purified.

The target of the next assay is ZZ-HsRanQ69L (human, UniProt P62826 1-216, Q69L). In words: SEC; 2 μM of each protein, 20 min on ice, Superdex 200 10/300 in Ran binding buffer (10 mM HEPES pH 7.4, 150 mM NaCl, 2 mM MgOAc2, 1 mM DTT); fractions by SDS-PAGE (SYPRO Ruby) and Western blot against the ZZ-tag. The conditions noted are these: both partners purified. (In general: In gel filtration, larger molecules generally elute earlier.)

B1: GST-Nup100(1–610) (domain or fragment, S. cerevisiae, UniProt Q02629 1-610, looked up)
chain: MFGNNRPMFGGSNLSFGSNTSSFGGQQSQQPNSLFGNSNNNNNSTSNNAQSGFGGFTSAAGSNSNSLFGNNNTQNNGAFGQSMGATQNSPFGSLNSSNASNGNTFGGSSSMGSFGGNTNNAFNNNSNSTNSPFGFNKPNTGGTLFGSQNNNSAGTSSLFGGQSTSTTGTFGNTGSSFGTGLNGNGSNIFGAGNNSQSNTTGSLFGNQQSSAFGTNNQQGSLFGQQSQNTNNAFGNQNQLGGSSFGSKPVGSGSLFGQSNNTLGNTTNNRNGLFGQMNSSNQGSSNSGLFGQNSMNSSTQGVFGQNNNQMQINGNNNNSLFGKANTFSNSASGGLFGQNNQQQGSGLFGQNSQTSGSSGLFGQNNQKQPNTFTQSNTGIGLFGQNNNQQQQSTGLFGAKPAGTTGSLFGGNSSTQPNSLFGTTNVPTSNTQSQQGNSLFGATKLTNMPFGGNPTANQSGSGNSLFGTKPASTTGSLFGNNTASTTVPSTNGLFGNNANNSTSTTNTGLFGAKPDSQSKPALGGGLFGNSNSNSSTIGQNKPVFGGTTQNTGLFGATGTNSSAVGSTGKLFGQNNNTLNVGTQNVPPVNNTTQNALLGTTAVPSLQQAPVTN
notes: Nup100 of budding yeast, GLFG-type FG-repeat region, residues 1-610; source: E. coli BL21(DE3), purified (GSH beads, eluted with glutathione, dialysed); not shown: GST, N-terminal, kept
As to B1, in assay [1], the binding result was “binds”.
With B2, in the assay with ZZ-HsRanQ69L, the binding result is recorded as “binds”.

The record behind these values is PMC3679522 (eLife, 2013).
